A short description of the data set: self-splicing fitness, log relative to wild type (ln ratio); higher = more splicing; Tetrahymena group I intron in knt gene, E. coli kanamycin selection, DiMSum; sequences stand for … in CUCUCU…GGAGGGAAAAGUUAUCAGGCAUGCACCUGGUAGCUAGUCUUUAAACCAAUAGAUUGCAUCGGUUUAAAAGGCAAGACCGUCAAAUUGCGGGAAAGGGGUCAACAGCCGUUCAGUACCAAGUCUCAGGGGAAACUUUGAGAUGGCCUUGCAAAGGGUAUGGUAAUAAGCUGACGGACAUGGUCCUAACCACGCAGCCAAGUCCUAAGUCAACAGAUCUUCUGUUGAUAUGGAUGCAGUUCACAGACUAAAUGUCGGUCGGGGAAGAUGUAUUCUUCUCAUAAGAUAUAGUCGGACCUCUCCUUAAUGGGAGCUAGCGGAUGAAGUGAUGCAACACUGGAGCCGCUGGGAACUAAUUUGUAUGCGAAAGUAUAUUGAUUAGUUUUGGAGUACUCGUGGUCG
In outline:
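A randomised library covering all eight P1ex-region intron nucleotides was built with the intron in the knt kanamycin-resistance gene on pET-22b(+) and held in E. coli BL21(DE3). Cells were grown overnight at 37°C or 30°C on LB agar, with or without 25 μg/mL kanamycin, plus 100 μg/mL carbenicillin, 50 μM IPTG and 0.2% rhamnose, and pooled colonies were amplicon-sequenced on an Illumina HiSeq 2500. DiMSum fitness is the error-weighted combination of wild-type-normalised replicate fold changes, kanamycin versus none.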

± gives the uncertainty stated by the source.

Consider CCGCAGCAAUAUUACGUACA, for which the “self-splicing fitness (ln)” value reads like this: (30 °C) -2.89 ± 0.16; (37 °C) -2.4 ± 0.23.
For the sequence CCGCAGCAAUAUUACGUAUA, the “self-splicing fitness (ln)” value (30 °C) is -3.6 ± 0.16 and the “self-splicing fitness (ln)” value (37 °C) was -3.03 ± 0.19.
As for CCGCAGCAAUAUUACGUCAG, the “self-splicing fitness (ln)” value was -0.624 ± 0.054 (30 °C) and 0.0667 ± 0.065 (37 °C).
Take CCGCAGCAAUAUUACGUCGG: the “self-splicing fitness (ln)” value (30 °C) is -3.9 ± 0.21 and the “self-splicing fitness (ln)” value (37 °C) was -2.28 ± 0.2.
For CCGCAGCAAUAUUACGUGCG, in that order: -4.67 ± 0.22 and -2.86 ± 0.15.
Take CCGCAGCAAUAUUACGUGUA: the “self-splicing fitness (ln)” value by setting is: (30 °C) -3.25 ± 0.17; (37 °C) -1.38 ± 0.13.
For CCGCAGCAAUAUUACGUUCA, in that order: -3.89 ± 0.27 and -2 ± 0.16.
Take CCGCAGCAAUAUUACGUUGC: the “self-splicing fitness (ln)” value is -3.32 ± 0.14 (30 °C) and -2.7 ± 0.21 (37 °C).
Consider CCGGAGCAAUAUUACGAUUC, for which the “self-splicing fitness (ln)” value (37 °C) was -2.85 ± 0.38.
As to CCGGAGCAAUAUUACGCCUU, the “self-splicing fitness (ln)” value is -2.67 ± 0.36 (30 °C) and -3.35 ± 0.47 (37 °C).
As for CCGGAGCAAUAUUACGCUAC, the “self-splicing fitness (ln)” value (30 °C) was -2.55 ± 0.49.
Take CCGGAGCAAUAUUACGCUUA: the “self-splicing fitness (ln)” value by setting is: (30 °C) -2.45 ± 0.24; (37 °C) -3.19 ± 0.35.
Turning to CCGGAGCAAUAUUACGGAGG, under “37 °C”, the “self-splicing fitness (ln)” value is -2.35 ± 0.25.
As for CCGGAGCAAUAUUACGGGAU, the “self-splicing fitness (ln)” value (30 °C) is -3.11 ± 0.36 and the “self-splicing fitness (ln)” value (37 °C) is -2.44 ± 0.25.
As to CCGGAGCAAUAUUACGUAUA, the “self-splicing fitness (ln)” value is -3.21 ± 0.23 (30 °C) and -2.49 ± 0.36 (37 °C).
CCGGAGCAAUAUUACGUAUG: the “self-splicing fitness (ln)” value was -1.41 ± 0.071 (30 °C) and -0.561 ± 0.083 (37 °C).
CCGGAGCAAUAUUACGUCAC: the “self-splicing fitness (ln)” value is, setting by setting: (30 °C) -3.61 ± 0.34; (37 °C) -2.71 ± 0.38.
For CCGGAGCAAUAUUACGUCCU, in that order: -4.9 ± 0.31 and -2.29 ± 0.16.
For CCGGAGCAAUAUUACGUCUG, the “self-splicing fitness (ln)” value (30 °C) is -1.22 ± 0.14 and the “self-splicing fitness (ln)” value (37 °C) is -0.402 ± 0.16.
Take CCGGAGCAAUAUUACGUUUA: the “self-splicing fitness (ln)” value (37 °C) is -1.99 ± 0.25.
Turning to CCGUAGCAAUAUUACGAGAG, the “self-splicing fitness (ln)” value is -3.86 ± 0.29 (30 °C) and -2.54 ± 0.24 (37 °C).
Consider CCGUAGCAAUAUUACGAUAU, for which the “self-splicing fitness (ln)” value is -2 ± 0.19 (30 °C) and -3.31 ± 0.43 (37 °C).
Regarding CCGUAGCAAUAUUACGCCAG, the “self-splicing fitness (ln)” value is -1.17 ± 0.16 (30 °C) and -0.533 ± 0.22 (37 °C).
Turning to CCGUAGCAAUAUUACGCCUA, the “self-splicing fitness (ln)” value by setting is: (30 °C) -3.02 ± 0.34; (37 °C) -2.11 ± 0.27.
For the sequence CCGUAGCAAUAUUACGCUCU, the “self-splicing fitness (ln)” value runs as follows: (30 °C) -2.65 ± 0.37; (37 °C) -2.48 ± 0.39.
As for CCGUAGCAAUAUUACGCUGU, the “self-splicing fitness (ln)” value is -3.79 ± 0.25 (30 °C) and -3.17 ± 0.26 (37 °C).
With CCGUAGCAAUAUUACGGAAA, the “self-splicing fitness (ln)” value (30 °C) is -3.22 ± 0.42 and the “self-splicing fitness (ln)” value (37 °C) was -2.52 ± 0.46.
Turning to CCGUAGCAAUAUUACGGACA, the “self-splicing fitness (ln)” value (30 °C) was -1.88 ± 0.35.
As to CCGUAGCAAUAUUACGGCAU, the “self-splicing fitness (ln)” value was -3.15 ± 0.23 (30 °C) and -2.85 ± 0.25 (37 °C).
Consider CCGUAGCAAUAUUACGGCCU, for which the “self-splicing fitness (ln)” value is -1.36 ± 0.14 (30 °C) and -2.7 ± 0.41 (37 °C).
The matching figures for CCGUAGCAAUAUUACGGCGC: -3.01 ± 0.33 and -1.48 ± 0.32.
Turning to CCGUAGCAAUAUUACGGGGA, the “self-splicing fitness (ln)” value was -3.45 ± 0.25 (30 °C) and -3.11 ± 0.25 (37 °C).
In the case of CCGUAGCAAUAUUACGGUCG, the “self-splicing fitness (ln)” value reads like this: (30 °C) -0.844 ± 0.074; (37 °C) -0.447 ± 0.095.
CCGUAGCAAUAUUACGGUGA: the “self-splicing fitness (ln)” value is, setting by setting: (30 °C) -3.66 ± 0.26; (37 °C) -2.45 ± 0.25.
Regarding CCGUAGCAAUAUUACGGUGG, the “self-splicing fitness (ln)” value reads like this: (30 °C) -2.59 ± 0.16; (37 °C) -1.1 ± 0.17.
The matching figures for CCGUAGCAAUAUUACGUAAG: 0.191 ± 0.047 and 0.106 ± 0.062.
For the sequence CCGUAGCAAUAUUACGUAGG, the “self-splicing fitness (ln)” value reads like this: (30 °C) -3.19 ± 0.17; (37 °C) -1.87 ± 0.19.
For the sequence CCGUAGCAAUAUUACGUCAU, the “self-splicing fitness (ln)” value is -3.33 ± 0.24 (30 °C) and -2.32 ± 0.28 (37 °C).
The matching figures for CCGUAGCAAUAUUACGUCGA: -1.93 ± 0.14 and -1.57 ± 0.13.
The matching figures for CCGUAGCAAUAUUACGUCUG: -0.102 ± 0.054 and 0.303 ± 0.067.
For CCGUAGCAAUAUUACGUGAG, the “self-splicing fitness (ln)” value is, setting by setting: (30 °C) -3.11 ± 0.34; (37 °C) -2.51 ± 0.38.
Regarding CCGUAGCAAUAUUACGUGCG, the “self-splicing fitness (ln)” value runs as follows: (30 °C) -2.39 ± 0.11; (37 °C) -1.68 ± 0.12.
CCGUAGCAAUAUUACGUGUC: the “self-splicing fitness (ln)” value (30 °C) was -3.6 ± 0.29 and the “self-splicing fitness (ln)” value (37 °C) is -1.87 ± 0.32.
In the case of CCGUAGCAAUAUUACGUUAA, the “self-splicing fitness (ln)” value (30 °C) was -3.18 ± 0.4 and the “self-splicing fitness (ln)” value (37 °C) was -2.67 ± 0.31.
Turning to CCGUAGCAAUAUUACGUUCG, the “self-splicing fitness (ln)” value (30 °C) was -0.619 ± 0.066 and the “self-splicing fitness (ln)” value (37 °C) turned out to be 0.0526 ± 0.095.
With CCGUAGCAAUAUUACGUUGG, the “self-splicing fitness (ln)” value by setting is: (30 °C) -4.39 ± 0.27; (37 °C) -3.1 ± 0.19.
The matching figures for CCGUAGCAAUAUUACGUUUU: -4.21 ± 0.23 and -2.87 ± 0.22.
On to CCUAAGCAAUAUUACGAAGG, for which the “self-splicing fitness (ln)” value (30 °C) is -3.55 ± 0.16 and the “self-splicing fitness (ln)” value (37 °C) was -2.9 ± 0.2.
CCUAAGCAAUAUUACGAAUC: the “self-splicing fitness (ln)” value (30 °C) is -0.765 ± 0.2.
Regarding CCUAAGCAAUAUUACGACGC, the “self-splicing fitness (ln)” value (37 °C) was -1.59 ± 0.42.
As for CCUAAGCAAUAUUACGACGG, the “self-splicing fitness (ln)” value was -3.49 ± 0.19 (30 °C) and -2.24 ± 0.24 (37 °C).
For the sequence CCUAAGCAAUAUUACGACUA, the “self-splicing fitness (ln)” value was -2.87 ± 0.4 (30 °C) and -1.59 ± 0.33 (37 °C).
In the case of CCUAAGCAAUAUUACGAGAA, the “self-splicing fitness (ln)” value (30 °C) is -2.67 ± 0.36.
With CCUAAGCAAUAUUACGAGAU, the “self-splicing fitness (ln)” value runs as follows: (30 °C) -3.2 ± 0.27; (37 °C) -3.33 ± 0.31.
Consider CCUAAGCAAUAUUACGAGGC, for which the “self-splicing fitness (ln)” value reads like this: (30 °C) -3.32 ± 0.15; (37 °C) -3.61 ± 0.22.
The matching figures for CCUAAGCAAUAUUACGAUAG: -1.12 ± 0.065 and -0.285 ± 0.074.
On to CCUAAGCAAUAUUACGCAAC, for which the “self-splicing fitness (ln)” value runs as follows: (30 °C) -3.08 ± 0.26; (37 °C) -3.03 ± 0.4.
For CCUAAGCAAUAUUACGCGCA, the “self-splicing fitness (ln)” value (30 °C) was -3.25 ± 0.24 and the “self-splicing fitness (ln)” value (37 °C) was -2.2 ± 0.19.
The matching figures for CCUAAGCAAUAUUACGCGGU: -2.54 ± 0.13 and -3.06 ± 0.18.
For the sequence CCUAAGCAAUAUUACGCUAU, the “self-splicing fitness (ln)” value was -4.71 ± 0.39 (30 °C) and -2.35 ± 0.24 (37 °C).
As to CCUAAGCAAUAUUACGGAGA, the “self-splicing fitness (ln)” value (37 °C) is -1.46 ± 0.22.
As to CCUAAGCAAUAUUACGGAGG, the “self-splicing fitness (ln)” value reads like this: (30 °C) -4.42 ± 0.29; (37 °C) -2.71 ± 0.31.
Take CCUAAGCAAUAUUACGGCAA: the “self-splicing fitness (ln)” value is -3.72 ± 0.21 (30 °C) and -2.91 ± 0.23 (37 °C).
For CCUAAGCAAUAUUACGGCCU, in that order: -1.9 ± 0.16 and -1.84 ± 0.37.
For the sequence CCUAAGCAAUAUUACGGGCC, the “self-splicing fitness (ln)” value was -3.18 ± 0.27 (30 °C) and -2.12 ± 0.22 (37 °C).
On to CCUAAGCAAUAUUACGGGGG, for which the “self-splicing fitness (ln)” value is, setting by setting: (30 °C) -3.51 ± 0.2; (37 °C) -2.5 ± 0.24.
The matching figures for CCUAAGCAAUAUUACGGGUC: -4.66 ± 0.36 and -3.25 ± 0.22.
Regarding CCUAAGCAAUAUUACGUCUA, the “self-splicing fitness (ln)” value was -3.9 ± 0.24 (30 °C) and -3.48 ± 0.36 (37 °C).
For CCUAAGCAAUAUUACGUCUU, in that order: -3.47 ± 0.18 and -2.42 ± 0.22.
On to CCUAAGCAAUAUUACGUGUA, for which the “self-splicing fitness (ln)” value was -3.61 ± 0.15 (30 °C) and -1.89 ± 0.14 (37 °C).
As to CCUAAGCAAUAUUACGUUUA, the “self-splicing fitness (ln)” value was -3.45 ± 0.18 (30 °C) and -3.14 ± 0.2 (37 °C).
Take CCUCAGCAAUAUUACGAAAG: the “self-splicing fitness (ln)” value (30 °C) is -1.51 ± 0.069 and the “self-splicing fitness (ln)” value (37 °C) is -0.45 ± 0.087.
Consider CCUCAGCAAUAUUACGACCA, for which the “self-splicing fitness (ln)” value is -2.93 ± 0.34 (30 °C) and -1.99 ± 0.46 (37 °C).
Regarding CCUCAGCAAUAUUACGACCU, the “self-splicing fitness (ln)” value by setting is: (30 °C) -2.59 ± 0.16; (37 °C) -2.59 ± 0.29.
For CCUCAGCAAUAUUACGAUCA, in that order: -3.65 ± 0.22 and -2.96 ± 0.26.
As for CCUCAGCAAUAUUACGCAAA, the “self-splicing fitness (ln)” value (37 °C) was -2.46 ± 0.3.
On to CCUCAGCAAUAUUACGCAUC, for which the “self-splicing fitness (ln)” value is, setting by setting: (30 °C) -2.68 ± 0.18; (37 °C) -2.85 ± 0.41.
For CCUCAGCAAUAUUACGCAUG, in that order: -1.83 ± 0.092 and -0.467 ± 0.086.

Source of the values: the supplement of paper PMC7877785.
